In US6706266, “Oncostatin M antagonists” (SmithKline Beecham Corporation):
Several values for one entry are separate records, joined by “and”; a condition that tells them apart may be missing. Equal entries are not always repeated.

T1: gp130 on HepG2 B6 cells (UniProt P40189 23-918, limits assumed)
T1 sequence (looked up): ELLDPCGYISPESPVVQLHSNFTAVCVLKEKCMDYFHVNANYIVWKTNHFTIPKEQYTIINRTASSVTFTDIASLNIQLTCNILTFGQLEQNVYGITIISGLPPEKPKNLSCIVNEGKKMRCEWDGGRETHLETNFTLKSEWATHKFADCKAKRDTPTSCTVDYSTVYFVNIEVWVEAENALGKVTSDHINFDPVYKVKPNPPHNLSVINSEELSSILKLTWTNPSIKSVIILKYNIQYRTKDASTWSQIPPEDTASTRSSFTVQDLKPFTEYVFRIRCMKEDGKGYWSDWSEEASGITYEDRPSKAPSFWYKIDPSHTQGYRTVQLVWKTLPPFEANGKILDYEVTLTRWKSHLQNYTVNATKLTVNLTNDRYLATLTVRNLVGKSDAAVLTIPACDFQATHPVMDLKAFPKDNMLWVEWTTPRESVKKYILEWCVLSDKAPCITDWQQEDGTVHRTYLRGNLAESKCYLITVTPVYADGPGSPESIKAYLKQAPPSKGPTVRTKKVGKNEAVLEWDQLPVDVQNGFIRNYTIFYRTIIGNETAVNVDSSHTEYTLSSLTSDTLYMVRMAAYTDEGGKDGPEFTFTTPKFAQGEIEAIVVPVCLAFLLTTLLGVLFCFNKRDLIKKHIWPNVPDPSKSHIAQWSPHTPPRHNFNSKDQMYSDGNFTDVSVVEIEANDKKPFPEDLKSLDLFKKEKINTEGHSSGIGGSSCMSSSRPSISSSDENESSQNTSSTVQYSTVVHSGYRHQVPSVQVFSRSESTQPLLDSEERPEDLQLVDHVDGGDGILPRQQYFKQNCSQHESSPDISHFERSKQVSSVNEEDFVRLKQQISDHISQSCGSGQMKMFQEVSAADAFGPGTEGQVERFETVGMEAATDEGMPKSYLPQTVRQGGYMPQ

T2: gp130-Fc fusion protein (human, UniProt P40189 23-619)
T2 construct: extracellular domain; not shown: Fc fragment of human IgG1
T2 sequence (looked up): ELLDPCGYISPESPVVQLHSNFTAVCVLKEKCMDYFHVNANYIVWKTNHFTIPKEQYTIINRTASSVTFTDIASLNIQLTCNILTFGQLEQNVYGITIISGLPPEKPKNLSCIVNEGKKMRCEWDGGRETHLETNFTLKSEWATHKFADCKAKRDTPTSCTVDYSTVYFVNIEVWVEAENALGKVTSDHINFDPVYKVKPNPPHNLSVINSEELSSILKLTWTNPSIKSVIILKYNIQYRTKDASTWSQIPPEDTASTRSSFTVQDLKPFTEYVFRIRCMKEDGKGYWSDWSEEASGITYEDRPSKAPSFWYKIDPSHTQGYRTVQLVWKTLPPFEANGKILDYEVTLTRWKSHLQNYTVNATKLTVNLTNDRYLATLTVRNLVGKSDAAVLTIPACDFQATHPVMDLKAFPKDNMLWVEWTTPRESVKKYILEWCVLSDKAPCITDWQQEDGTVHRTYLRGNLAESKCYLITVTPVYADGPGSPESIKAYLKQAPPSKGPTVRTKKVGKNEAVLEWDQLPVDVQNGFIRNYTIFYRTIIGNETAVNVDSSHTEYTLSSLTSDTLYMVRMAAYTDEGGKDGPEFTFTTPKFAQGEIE

B1: wild type OSM-GST fusion (ligand)
chain: AAIGSCSKEYRVLLGQLQKQTDLMQDTSRLLDPYIRIQGLDVPKLREHCRERPGAFPSEETLRGLGRRGFLQTLNATLGCVLHRLADLEQRLPKAQDLERSGLNIEDLEKLQMARPNILGLRNNIYCMAQLLDNSDTAEPTKAGRGASQPPTPTPASDAFQRKLEGCRFLHGYHRFMHSVGRVFSKWGESPNRSRR
notes: pGEX-derived fusion; also called wt OSM-GST; GST-hOSM; not shown: glutathione S-transferase (GST) encoded by modified pGEX-3X (Pharmacia), N-terminal, up to the Factor Xa site region sho
B2: OSM-GST mutant G120A (ligand, not shown: a dimerising Fc or GST; large carriers; small tags and cut ends)
chain: AAIGSCSKEYRVLLGQLQKQTDLMQDTSRLLDPYIRIQGLDVPKLREHCRERPGAFPSEETLRGLGRRGFLQTLNATLGCVLHRLADLEQRLPKAQDLERSGLNIEDLEKLQMARPNILALRNNIYCMAQLLDNSDTAEPTKAGRGASQPPTPTPASDAFQRKLEGCRFLHGYHRFMHSVGRVFSKWGESPNRSRR
notes: Alanine mutant of m4; also called (20)G120; 20 G120A
B3: OSM-GST mutant K8A (ligand, not shown: a dimerising Fc or GST; large carriers; small tags and cut ends)
chain: AAIGSCSAEYRVLLGQLQKQTDLMQDTSRLLDPYIRIQGLDVPKLREHCRERPGAFPSEETLRGLGRRGFLQTLNATLGCVLHRLADLEQRLPKAQDLERSGLNIEDLEKLQMARPNILGLRNNIYCMAQLLDNSDTAEPTKAGRGASQPPTPTPASDAFQRKLEGCRFLHGYHRFMHSVGRVFSKWGESPNRSRR
notes: Alanine mutant of m4; also called (2)K8A; 2 K8A
B4: OSM-GST mutant K19A (ligand)
chain: AAIGSCSKEYRVLLGQLQAQTDLMQDTSRLLDPYIRIQGLDVPKLREHCRERPGAFPSEETLRGLGRRGFLQTLNATLGCVLHRLADLEQRLPKAQDLERSGLNIEDLEKLQMARPNILGLRNNIYCMAQLLDNSDTAEPTKAGRGASQPPTPTPASDAFQRKLEGCRFLHGYHRFMHSVGRVFSKWGESPNRSRR
notes: Alanine mutant of m4; also called (12)K19A; 12 K19A; not shown: Its linker is left out
B5: OSM-GST mutant N123A (ligand, not shown: a dimerising Fc or GST; large carriers; small tags and cut ends)
chain: AAIGSCSKEYRVLLGQLQKQTDLMQDTSRLLDPYIRIQGLDVPKLREHCRERPGAFPSEETLRGLGRRGFLQTLNATLGCVLHRLADLEQRLPKAQDLERSGLNIEDLEKLQMARPNILGLRANIYCMAQLLDNSDTAEPTKAGRGASQPPTPTPASDAFQRKLEGCRFLHGYHRFMHSVGRVFSKWGESPNRSRR
notes: Alanine mutant of m4; also called (22)N123A; 22 N123A
B6: OSM-GST mutant Q16A (ligand)
chain: AAIGSCSKEYRVLLGALQKQTDLMQDTSRLLDPYIRIQGLDVPKLREHCRERPGAFPSEETLRGLGRRGFLQTLNATLGCVLHRLADLEQRLPKAQDLERSGLNIEDLEKLQMARPNILGLRNNIYCMAQLLDNSDTAEPTKAGRGASQPPTPTPASDAFQRKLEGCRFLHGYHRFMHSVGRVFSKWGESPNRSRR
notes: Alanine mutant of m4; also called (9)Q16A; 9 Q16A; not shown: Its linker is left out
B7: OSM-GST mutant Q20A (ligand)
chain: AAIGSCSKEYRVLLGQLQKATDLMQDTSRLLDPYIRIQGLDVPKLREHCRERPGAFPSEETLRGLGRRGFLQTLNATLGCVLHRLADLEQRLPKAQDLERSGLNIEDLEKLQMARPNILGLRNNIYCMAQLLDNSDTAEPTKAGRGASQPPTPTPASDAFQRKLEGCRFLHGYHRFMHSVGRVFSKWGESPNRSRR
notes: Alanine mutant of m4; also called (13)Q20A; 13 Q20A; not shown: Its linker is left out

Key:
gp130 on HepG2 B6 cells = target: T1, gp130 on HepG2 B6 cells; experiment: cell-based or functional assay
gp130-Fc fusion protein [1] = target: T2, gp130-Fc fusion protein; experiment: competition ELISA: OSM-GST titrated against plate-bound wt OSM for gp130-Fc; mean
Method: (§1) Plates were washed (×6 in PBS 0.05% tween 20, using Skatron Plate washer), tapped dry and blocked to reduce non-specific binding (200 µl/well, 1% BSA/PBS). Following 1 h incubation (room temperature on a shaking platform) the plates were tapped dry and wild type (wt) or mutant OSM-GST from Example 9b added (50 µl/well, 20–0.002 µg/ml, titrated in 1%BSA/PBS). As a positive control polyclonal anti-human OSM antibody (R&D Systems) was also tested (20–0.02 µg/ml). […] Following a 5 h incubation (room temperature on a shaking platform) the plates were washed (×6) and developed using ELISA Amplification System (Life Technologies) as manufacturer's instructions and the OD measured at 490 nm.

gp130-Fc fusion protein [2] = target: T2, gp130-Fc fusion protein; experiment: competition ELISA: OSM-GST titrated against plate-bound wt OSM for gp130-Fc; single experiment
Method: as §1

| Binder | sPAP HepG2 B6 assay: Expt 1 % (EC50 as % of wild type EC50) (gp130 on HepG2 B6 cells) [%] | sPAP HepG2 B6 assay: Expt 1 EC50 (gp130 on HepG2 B6 cells) [µg/mL] | sPAP HepG2 B6 assay: Expt 2 % (EC50 as % of wild type EC50) (gp130 on HepG2 B6 cells) [%] | sPAP HepG2 B6 assay: Expt 2 EC50 (gp130 on HepG2 B6 cells) [µg/mL] | sPAP HepG2 B6 assay: Mean % of wild type EC50 (gp130 on HepG2 B6 cells) [%] | IC50 (gp130-Fc fusion protein [1]) [µg/mL] | IC50 (gp130-Fc fusion protein [2]) |
| --- | --- | --- | --- | --- | --- | --- | --- |
| B1 | 100 | 0.024 | 100 | 0.032 | 100 | 0.139 | – |
| B2 | – | – | – | – | – | 3.09 | 3.65 µg/mL and 2.68 µg/mL and 2.95 µg/mL |
| B3 | 66 | 0.016 | 38 | 0.0125 | 52 | 0.138 | – |
| B4 | 98 | 0.0236 | 37 | 0.0119 | 67.5 | 0.116 | – |
| B5 | 157 | 0.0379 | 154 | 0.0497 | 156 | 2.96 | – |
| B6 | – | – | – | – | – | – | > 10 µg/mL |
| B7 | – | – | – | – | – | 5 | 4.13 µg/mL and 5.57 µg/mL and 4.1 µg/mL and 6.2 µg/mL |
